The text below walks through data of US6673332 (University of California, dated 2004).

B5: GST-TPR (GST fusion protein of the TPR domains of KLC1, amino acids 167-541) (other, UniProt O88447 167-541, looked up)
chain: KDSDSSKEPLDDLFPNDEDEPGQGIQHSDSSAAAARQGYEIPARLRTLHNLVIQYASQGRYEVAVPSCKQALEDLEKTSGHDHPDVATMLNILALVYRDQNKYKDAANLLNDALAIREKTLGRDHPAVAATLNNLAVLYGKRGKYKEAEPLCKRALEIREKVLGKDHPDVAKQLNNLALLCQNQGKYEEVEYYYQRALGIYQTKLGPDRTPNVAKTKNNLASCYLKQGKFKQAETLYKEILTRAHEAEFGSVDDENKPIWMHAEEREECKGKQKDGSAFGEYGGWYKACKVDSPTVTTTLKNLGALYRRQGKFEAAETLEEAAMRSRKQGLDNVHKQRVAEVLNDPESMEKRRSRESLNMDVVKYESGPDGGEEA
notes: range 167-541; The range is printed without a hyphen (167541); not shown: glutathione S-transferase

For assay [1], the target named is B5. The experiment in a line: GST pull-down, Western blot for the His tag. The procedure:
(§1) Briefly, purified GST, GST-KLC1 and GST-KLC2 bound to glutathione agarose beads were incubated with 10 μg of indicated purified fusion protein in 150 μl Buffer B (20 mM Tris-Cl, pH 7.5, 50 mM KCl, 100 mM NaCl, 2 mM CaCl_2, 2 mM MgCl_2, 5 mM DTT, 1% BSA, and protease inhibitors) for 1 hr at 4° C. For the antibody inhibition experiments, the antibody was pre-bound to the beads for 1 hr at 4° C. and then incubated for 1 hr with the indicated protein. The unbound protein (in 150 μl total volume) was saved, and the beads were washed three times with Buffer B. Bound proteins were eluted with 50 μl of elution buffer (50 mM glutathione, 50 mM Tris-Cl, pH 8.0). The bound (50 μl) and unbound (50 μl, i.e., one-third of total volume) proteins were then analyzed by SDS-PAGE followed by Western blotting.
(§2) To test directly if the C-terminus of APP interacts with the TPR domains of KLC, GST pull-down assays were conducted using GST fusion proteins of KLC1 that contained either the TPR domains (GST-TPR) or only the N-terminal coiled-coil region (GST-CC) (See, FIG. 5, Panel E). Purified APP-GFP protein bound to GST-TPR and not to GST-CC or to GST alone. In contrast, a KIF5B construct that contains part of a region previously found to bind to KLC (Diefenbach et al., [1998], supra; and Gauger and Goldstein, [1993], supra) bound to GST-CC, and not to GST-TPR.
Background: A western blot detects proteins with antibodies after separation by electrophoresis.

For assay [2], the target named is APP (amyloid precursor protein), endogenous, from mouse brain and sciatic nerve extracts (mouse, UniProt P12023 18-770, limits assumed). The assay is described as follows: co-immunoprecipitation from mouse brain and sciatic nerve extracts, Western blot. An excerpt: Mouse brain (left side of panel; IP brain) or sciatic nerve (right side of panel; Supe) extracts were immunoprecipitated with a no antibody control (No Ab), the 63–90 antibody (which recognizes both KLC1 and KLC2; i.e., kinesin light chains 1 and 2), antibodies to KIF5B (ubiquitous KHC), or APP (C-terminal polyclonal antibody) or synaptotagmin (SYT). Panel B provides results showing the specificity of kinesin-I co-immunoprecipitation with APP. Co-immunoprecipitation of APP with KLC from wild-type (wt) and mutant (−/−) KLC1 brain extracts was done using 63–90 or antibodies specific to either KLC1 or KLC2, and then analyzed by Western blots using either 63–90 or APP (22C11) antibodies. Panel C provides results showing KLC1 dependence of KHC complexes with APP. Co-immunoprecipitation of APP with KHC from wild-type (wt) and mutant (−/−) KLC1 brain extracts were performed using antibodies to three different KHC subunits (KIF5A, KIF5B and KIF5C), and then analyzed by Western blots using either 63–90 or APP (22C11) antibodies, as shown in this Panel. […]
Sufficient quantities of either anti-KLC1 and anti-KLC2 (Rahman et al., [1998], supra), or anti-KIF5A and anti-KIF5B antibodies (Niclas et al., Neuron 12:1059–1072 [1994]) were added to the precleared lysate so as to completely immunoprecipitate the antigens in the lysate. […]

In assay [3] the target is T1, APP-GFP fusion protein (C-terminal 42 amino acids of human APP fused to GFP, from a His-tagged pRSETb-EGFP … (human, UniProt P05067 729-770; P42212 1-238 = GFP).
T1 construct: Expressed in bacteria, purified on Ni-NTA-agarose; also called C-terminal tail of APP fused to GFP; APP C-terminus; not shown: His tag and leader of the pRSETb vector
The assay is described as follows: GST pull-down, Western blot for GFP. The method, then:
as §1, §2

For assay [4], the target named is T2, GFP alone (UniProt P42212 1-238 = GFP, limits assumed).
T2 construct: Control
The assay is described as follows: GST pull-down, Western blot for GFP. The procedure: as §1, §2

Assay [5] concerns the target T2, GFP alone. The experiment in a line: GST pull-down on glutathione agarose beads, Western blot for GFP; also under five buffer conditions. The method, then: as §1
In addition, the binding of APP-GFP or GFP alone to either GST-KLC1 or GST using four other buffers than Buffer B, namely (1) Buffer B without Ca^2+, (2) Buffer B+500 mM NaCl+1% NP-40, (3) Buffer A from sucrose gradients (10 mM HEPES, pH 7.3, 0.5 mM EGTA, 0.5 mM EGTA, 0.5 mM MgCl_2, and (4) PBS (137 mM NaCl, 2.7 mM KCl, 4.3 mM Na_2HPO_4 7 H_2O, 1.4 mM KH_2PO_4) were tested.
To test for direct interactions between the cytoplasmic C-terminal domain of APP and KLC, in vitro binding assays using GST fusion proteins were conducted. […]

Assay [6] has as its target T2, GFP alone. The assay is described as follows: GST pull-down on glutathione agarose beads, Western blot for GFP. The procedure: as §1
To test for direct interactions between the cytoplasmic C-terminal domain of APP and KLC, in vitro binding assays using GST fusion proteins were conducted. The results are shown in FIG. 5, Panel A. GST fused to full-length KLC1 (GST-KLC1) or full-length KLC2 (GST-KLC2) was incubated with a protein consisting of the C-terminal tail of APP fused to GFP (APP-GFP). APP-GFP bound to both GST-KLC1 and GST-KLC2 but not to GST alone. […]

B1: KIF5B-His fusion protein (amino acids 499-783 of KIF5B, His-tagged, pET-23b) (other, UniProt Q61768 499-783, looked up)
chain: AVNYDQKSQEVEDKTKEYELLSDELNQKSATLASIDAELQKLKEMTNHQKKRAAEMMASLLKDLAEIGIAVGNNDVKQPEGTGMIDEEFTVARLYISKMKSEVKTMVKRCKQLESTQTESNKKMEENEKELAACQLRISQHEAKIKSLTEYLQNVEQKKRQLEESVDSLGEELVQLRAQEKVHEMEKEHLNKVQTANEVKQAVEQQIQSHRETHQKQISSLRDEVEAKEKLITDLQDQNQKMVLEQERLRVEHERLKATDQEKSRKLHELTVMQDRREQARQDLK
notes: range 499-783; also called C-terminal stalk of KIF5B; KIF5B construct; not shown: His tag of vector pET-23b
Take B1: in assay [1], the binding result was “no binding”.

B2: synaptophysin, endogenous, mouse extracts (other, UniProt Q62277 1-314, looked up)
chain: MLLLADMDVVNQLVAGGQFRVVKEPLGFVKVLQWVFAIFAFATCGSYTGELRLSVECANKTESALNIEVEFEYPFRLHQVYFDAPSCVKGGTTKIFLVGDYSSSAEFFVTVAVFAFLYSMGALATYIFLQNKYRENNKGPMMDFLATAVFAFMWLVSSSAWAKGLSDVKMATDPENIIKEMPMCRQTGNTCKELRDPVTSGLNTSVVFGFLNLVLWVGNLWFVFKETGWAAPFMRAPPGAPEKQPAPGDAYGDAGYGQGPGGYGPQDSYGPQGGYQPDYGQPASGGGGGYGPQGDYGQQGYGQQGAPTSFSNQM
notes: also called SYP
For the molecule B2, in assay [2], the binding result is recorded as “no binding”.

B3: GST-CC (GST fusion protein of the N-terminal coiled coil domain of KLC, amino acids 30-200) (other, UniProt O88447 30-200, looked up)
chain: QVIQGLEALKNEHNSILQSLLETLKCLKKDDESNLVEEKSSMIRKSLEMLELGLSEAQVMMALSNHLNAVESEKQNVRAQVRRLCQENQWLRDELANTQQKLQKSEQSVAQLEEEKKHLEFMNQLKKYDDDISPSEDKDSDSSKEPLDDLFPNDEDEPGQGIQHSDSSAAA
notes: range 30-200; not shown: glutathione S-transferase
Regarding B3, the binding result (in assay [3]; with GFP alone [4]) was “no binding” throughout.

B4: GST-KLC1 (glutathione S-transferase fused to kinesin light chain 1, all but the first seven amino acids) (other, UniProt O88447 8-541, looked up, not shown: a dimerising Fc or GST)
chain: MVYIKEEKLENVTQDEIISKTKQVIQGLEALKNEHNSILQSLLETLKCLKKDDESNLVEEKSSMIRKSLEMLELGLSEAQVMMALSNHLNAVESEKQNVRAQVRRLCQENQWLRDELANTQQKLQKSEQSVAQLEEEKKHLEFMNQLKKYDDDISPSEDKDSDSSKEPLDDLFPNDEDEPGQGIQHSDSSAAAARQGYEIPARLRTLHNLVIQYASQGRYEVAVPSCKQALEDLEKTSGHDHPDVATMLNILALVYRDQNKYKDAANLLNDALAIREKTLGRDHPAVAATLNNLAVLYGKRGKYKEAEPLCKRALEIREKVLGKDHPDVAKQLNNLALLCQNQGKYEEVEYYYQRALGIYQTKLGPDRTPNVAKTKNNLASCYLKQGKFKQAETLYKEILTRAHEAEFGSVDDENKPIWMHAEEREECKGKQKDGSAFGEYGGWYKACKVDSPTVTTTLKNLGALYRRQGKFEAAETLEEAAMRSRKQGLDNVHKQRVAEVLNDPESMEKRRSRESLNMDVVKYESGPDGGEEA
notes: range 8-end; also called GST fused to full-length KLC1
With B4, the binding result with GFP alone [5] was “no binding”. For the molecule B5, the binding result with GFP alone [4] is listed as “no binding”.

B6: GST-KLC2 (glutathione S-transferase fused to kinesin light chain 2, 591 amino acids of the largest cDNA clone) (other, UniProt O88448 9-599, looked up, not shown: a dimerising Fc or GST)
chain: EEKLSQDEIVLGTKAVIQGLETLRGEHRALLAPLASHEAGEAEPGSQERCLLLRRSLEAIELGLGEAQVILALSSHLGAVESEKQKLRAQVRRLVQENQWLREELAGTQQKLQRSEQAVAQLEEEKQHLLFMSQIRKLDEMLPQEEKGDVPKDSLDDLFPNEDEQSPAPSPGGGDVAAQHGGYEIPARLRTLHNLVIQYASQGRYEVAVPLCKQALEDLEKTSGHDHPDVATMLNILALVYRDQNKYKDAAHLLNDALAIREKTLGKDHPAVAATLNNLAVLYGKRGKYKEAEPLCKRALEIREKVLGKFHPDVAKQLSNLALLCQNQGKAEEVEYYYRRALEIYATRLGPDDPNVAKTKNNLASCYLKQGKYQDAETLYKEILTRAHEKEFGSVNGENKPIWMHAEEREESKDKRRDRRPMEYGSWYKACKVDSPTVNTTLRTLGALYRPEGKLEAAHTLEDCASRSRKQGLDPASQTKVVELLKDGSGRGHRRGSRDVAGPQSESDLEESGPAAEWSGDGSGSLRRSGSFGKLRDALRRSSEMLVRKLQGGGPQEPNSRMKRASSLNFLNKSVEEPVQPGGRVFLTAAL
notes: also called GST fused to full-length KLC2
As for B6, in the assay with GFP alone [6], the binding result is listed as “no binding”.
